Reference: US20260193293A1, “PEPTIDES CAPABLE OF INHIBITING PROTEIN-PROTEIN INTERACTIONS AT GABAB1A SUBUNIT AND USES THEREOF” (UNIVERSITY OF COPENHAGEN, priority 2022, published 2026)
Several values for one entry are separate records, joined by “and”; a condition that tells them apart may be missing. Identical values can stand only once. Starred links: 1 amine or outer side, 2 acyl side, 3 side chain; linkers in the order of their positions; H or OH if unused. Non-standard residues stand in square brackets, D forms with d. Obtyr = O-benzyl-L-tyrosine, O=C([C@H](Cc1ccc(OCc2ccccc2)cc1)N[*:1])[*:2]; Oetyr = O-ethyl-L-tyrosine, CCOc1ccc(C[C@H](N[*:1])C(=O)[*:2])cc1; 2Nal = N[C@@H](Cc1ccc2ccccc2c1)C(=O)O; Sar = CNCC(=O)O

Experiments:
[1] = molecular target: Sushi domains (SD1/2) protein of the GABAB1a (GB1a) subunit, recombinant; assay: FP competition
[2] = molecular target: Sushi domains (SD1/2) protein of the GABAB1a (GB1a) subunit, recombinant; assay: FP competition with AJAP-1probe
[3] = molecular target: Sushi domains (SD1/2) protein of the GABAB1a (GB1a) subunit, recombinant; assay: FP competition; remark: listed apart in the source
[4] = molecular target: Sushi domains (SD1/2) protein of the GABAB1a (GB1a) subunit, recombinant; assay: FP competition; remark: listed apart in the source
[5] = molecular target: Sushi domains (SD1/2) protein of the GABAB1a (GB1a) subunit, recombinant; assay: FP inhibition, six-point, crude peptide of the solution array
[6] = molecular target: Sushi domains (SD1/2) protein of GABAB1a (GB1a); assay: FP competition vs TAMRA AJAP-1probe
[7] = molecular target: Sushi domains (SD1/2) protein of the GABAB1a (GB1a) subunit, recombinant; assay: FP competition, N-methylation scan

Sushi domains (SD1/2) protein of the GABAB1a (GB1a) subunit, recombinant, sequence (Q9Z0U4 29-158): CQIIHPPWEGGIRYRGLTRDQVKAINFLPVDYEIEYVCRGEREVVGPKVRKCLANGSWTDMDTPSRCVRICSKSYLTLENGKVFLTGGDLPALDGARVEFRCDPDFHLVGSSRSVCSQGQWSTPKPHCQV
Sushi domains (SD1/2) protein of GABAB1a (GB1a), sequence (Q9Z0U4 29-158): as above

Row | Binder | Ki [2] | Ki [3] | other results
1 | Ac-EEDDSDVWWGGADTDYAD-NH2 [Peptide 36 (Ac-…-NH2)] | 244 nM |  | Ki [1]: 244 nM and 233 nM
2 | Ac-EDDYIDWGPTSDDD-NH2 [peptide 19 (Ac-…-NH2)] |  | 3.8 nM | 
3 | EDDDAIDWYDSDDD (N-terminal acetyl; C-terminal amide; 3-(2-naphthyl)-L-alanine (2Nala) at 5) [peptide 20 (Ac-EDDD(2Nala)…-NH2)] |  | 1.5 nM | 
4 | Ac-DDSDVWWGGADTDYADG-NH2 | 687 nM |  | 
5 | Ac-PWAIVWGPTVSRED-NH2 [PIANPWT (Ac-…-NH2)] |  |  | Ki [1]: 762 nM; Ki [4]: 476 nM
6 | Ac-EDDD[2Nal]IDWGPTSDDD-NH2 (SMILES CC[C@H](C)[C@H](NC(=O)[C@H](Cc1ccc2ccccc2c1)NC(=O)[C@H](CC(=O)O)NC(=O)[C@H](CC(=O)O)NC(=O)[C@H](CC(=O)O)NC(=O)[C@H](CCC(=O)O)NC(C)=O)C(=O)N[C@@H](CC(=O)O)C(=O)N[C@@H](Cc1c[nH]c2ccccc12)C(=O)NCC(=O)N1CCC[C@H]1C(=O)N[C@H](C(=O)N[C@@H](CO)C(=O)N[C@@H](CC(=O)O)C(=O)N[C@@H](CC(=O)O)C(=O)N[C@@H](CC(=O)O)C(N)=O)[C@@H](C)O) [peptide 21 (Ac-EDDD(2Nala)…-NH2)] |  | 5.3 nM | 
7 | Ac-EDDSWVWWGGADTD-NH2 [… (APPWT mutant D207W)] |  |  | Ki [1]: 100 nM; Ki [5]: 78 nM
8 | Ac-ADAEEDDSDVWWGGA-NH2 | 1530 nM |  | 
9 | Ac-EDDSWIWWYGADTD-NH2 [peptide 28 (Ac-…-NH2)] |  | 18 nM | 
10 | Ac-ETEFIAWGGADTD-NH2 [hybrid peptide Y (Ac-…-NH2)] |  | 354 nM | 
11 | Ac-EDDYIDWYDSDDD-NH2 [peptide 18 (Ac-…-NH2)] |  | 4.6 nM | 
12 | Ac-PWAIVWG[Sar]TVSRED-NH2 (SMILES CC[C@H](C)[C@H](NC(=O)[C@H](C)NC(=O)[C@H](Cc1c[nH]c2ccccc12)NC(=O)[C@@H]1CCCN1C(C)=O)C(=O)N[C@H](C(=O)N[C@@H](Cc1c[nH]c2ccccc12)C(=O)NCC(=O)N(C)CC(=O)N[C@H](C(=O)N[C@H](C(=O)N[C@@H](CO)C(=O)N[C@@H](CCCNC(=N)N)C(=O)N[C@@H](CCC(=O)O)C(=O)N[C@@H](CC(=O)O)C(N)=O)C(C)C)[C@@H](C)O)C(C)C) [PWAIVWG(N-Me-G)TVSRED] |  |  | Ki [1]: 525 nM; Ki [6]: 525 nM
13 | Ac-AIVWGPTVSREDGGD-NH2 | 637 nM |  | 
14 | Ac-EDDSWIDWGPTGDED-NH2 [peptide 29 (Ac-…-NH2)] |  | 5.6 nM | 
15 | Ac-PWAIVWGPTVSREDG-NH2 [peptide 14 (…)] | 465 nM |  | 
16 | Ac-DDSDVWWGG-NH2 | 2630 nM |  | 
17 | Ac-EDDSDVWWGGADTD-NH2 [APPWT (Ac-…-NH2)] |  | 557 nM | Ki [5]: 635 nM
18 | Ac-EDDSWIWWGPTGDED-NH2 [peptide 27 (Ac-…-NH2)] |  | 16 nM | fold better affinity than 9 [1]: 3.8 fold
19 | Ac-ETEFIAWYGADTD-NH2 [peptide 37 (Ac-…-NH2)] |  | 95 nM | 
20 | Ac-EDDD[Oetyr]IDWGPTSDDD-NH2 (SMILES CCOc1ccc(C[C@H](NC(=O)[C@H](CC(=O)O)NC(=O)[C@H](CC(=O)O)NC(=O)[C@H](CC(=O)O)NC(=O)[C@H](CCC(=O)O)NC(C)=O)C(=O)N[C@H](C(=O)N[C@@H](CC(=O)O)C(=O)N[C@@H](Cc2c[nH]c3ccccc23)C(=O)NCC(=O)N2CCC[C@H]2C(=O)N[C@H](C(=O)N[C@@H](CO)C(=O)N[C@@H](CC(=O)O)C(=O)N[C@@H](CC(=O)O)C(=O)N[C@@H](CC(=O)O)C(N)=O)[C@@H](C)O)[C@@H](C)CC)cc1) [peptide 34 (Ac-EDDD(Oetyr)…-NH2)] |  | 6.5 nM | 
21 | Ac-EDDD[Obtyr]IDWYDSDDD-NH2 (SMILES CC[C@H](C)[C@H](NC(=O)[C@H](Cc1ccc(OCc2ccccc2)cc1)NC(=O)[C@H](CC(=O)O)NC(=O)[C@H](CC(=O)O)NC(=O)[C@H](CC(=O)O)NC(=O)[C@H](CCC(=O)O)NC(C)=O)C(=O)N[C@@H](CC(=O)O)C(=O)N[C@@H](Cc1c[nH]c2ccccc12)C(=O)N[C@@H](Cc1ccc(O)cc1)C(=O)N[C@@H](CC(=O)O)C(=O)N[C@@H](CO)C(=O)N[C@@H](CC(=O)O)C(=O)N[C@@H](CC(=O)O)C(=O)N[C@@H](CC(=O)O)C(N)=O) [peptide 33 (Ac-EDDD(Obtyr)…-NH2)] |  | 9.3 nM | 
22 | Ac-EDDSDVWWG[Sar]ADTD-NH2 (SMILES CC(=O)N[C@@H](CCC(=O)O)C(=O)N[C@@H](CC(=O)O)C(=O)N[C@@H](CC(=O)O)C(=O)N[C@@H](CO)C(=O)N[C@@H](CC(=O)O)C(=O)N[C@H](C(=O)N[C@@H](Cc1c[nH]c2ccccc12)C(=O)N[C@@H](Cc1c[nH]c2ccccc12)C(=O)NCC(=O)N(C)CC(=O)N[C@@H](C)C(=O)N[C@@H](CC(=O)O)C(=O)N[C@H](C(=O)N[C@@H](CC(=O)O)C(N)=O)[C@@H](C)O)C(C)C) […(N-Me-G)ADTD] |  |  | Ki [1]: 161 nM; Ki [6]: 161 nM; fold increased affinity against APPWT [7]: 3 fold
23 | Ac-EDDD[Obtyr]IDWGPTSDDD-NH2 (SMILES CC[C@H](C)[C@H](NC(=O)[C@H](Cc1ccc(OCc2ccccc2)cc1)NC(=O)[C@H](CC(=O)O)NC(=O)[C@H](CC(=O)O)NC(=O)[C@H](CC(=O)O)NC(=O)[C@H](CCC(=O)O)NC(C)=O)C(=O)N[C@@H](CC(=O)O)C(=O)N[C@@H](Cc1c[nH]c2ccccc12)C(=O)NCC(=O)N1CCC[C@H]1C(=O)N[C@H](C(=O)N[C@@H](CO)C(=O)N[C@@H](CC(=O)O)C(=O)N[C@@H](CC(=O)O)C(=O)N[C@@H](CC(=O)O)C(N)=O)[C@@H](C)O) [peptide 35 (Ac-EDDD(Obtyr)…-NH2)] |  | 9.5 nM | 
24 | Ac-EDDDWIDWGPTSDDD-NH2 [peptide 17 (Ac-…-NH2)] |  | 4 nM | 
25 | Ac-EDDSDVWWYGADTD-NH2 [… (APPWT mutant G211Y)] |  |  | Ki [1]: 108 nM; Ki [5]: 167 nM
26 | Ac-ETEFIAWGPTGDED-NH2 [AJAP-1WT (Ac-…-NH2)] |  | 31 nM | Ki [1]: 32 nM

More lines, main results first:

Row | Ki [2] | Ki [3] | Binder | other results
27 |  | 5.3 nM | Ac-EDDD[Oetyr]IDWYDSDDD-NH2 (SMILES CCOc1ccc(C[C@H](NC(=O)[C@H](CC(=O)O)NC(=O)[C@H](CC(=O)O)NC(=O)[C@H](CC(=O)O)NC(=O)[C@H](CCC(=O)O)NC(C)=O)C(=O)N[C@H](C(=O)N[C@@H](CC(=O)O)C(=O)N[C@@H](Cc2c[nH]c3ccccc23)C(=O)N[C@@H](Cc2ccc(O)cc2)C(=O)N[C@@H](CC(=O)O)C(=O)N[C@@H](CO)C(=O)N[C@@H](CC(=O)O)C(=O)N[C@@H](CC(=O)O)C(=O)N[C@@H](CC(=O)O)C(N)=O)[C@@H](C)CC)cc1) [peptide 32 (Ac-EDDD(Oetyr)…-NH2)] | 
28 |  | 11 nM | Ac-EDDSWIDWYGADTD-NH2 [peptide 30 (Ac-…-NH2)] | 
29 |  | 62 nM | Ac-EDDSDVWWGPTGDED-NH2 [hybrid peptide X (Ac-…-NH2)] | fold higher affinity than APPWT [1]: 10 fold
30 | 1300 nM |  | Ac-SADAEEDDSDVWWGG-NH2 [peptide 12 (…)] | 
31 | 1350 nM |  | Ac-WAIVWGPTVSREDGG-NH2 | 
32 | 73 nM |  | Ac-TTETEFIAWGPTGDE-NH2 | 
33 | 23 nM |  | Ac-TETEFIAWGPTGDED-NH2 [peptide 15 (Ac-…-NH2)] | Ki [1]: 26 nM
34 |  | 3.2 nM | Ac-EDDDWIDWYDSDDD-NH2 [peptide 16 (Ac-…-NH2)] | 
35 | 581 nM |  | Ac-EDDSDVWWGGADTDY-NH2 [peptide 13 (…)] | 
36 | 5030 nM |  | Ac-DSADAEEDDSDVWWG-NH2 [peptide 11 (…)] | 
